Experimental data: patent US20260232769A1 (WUXI BIOLOGICS IRELAND, published 2026)

T1: IL-2Rβ/γc complex (intermediate affinity receptor) on primary human CD8+ T cells (human, UniProt P14784 27-551; P31785 23-369)
T1 sequence (looked up) 1: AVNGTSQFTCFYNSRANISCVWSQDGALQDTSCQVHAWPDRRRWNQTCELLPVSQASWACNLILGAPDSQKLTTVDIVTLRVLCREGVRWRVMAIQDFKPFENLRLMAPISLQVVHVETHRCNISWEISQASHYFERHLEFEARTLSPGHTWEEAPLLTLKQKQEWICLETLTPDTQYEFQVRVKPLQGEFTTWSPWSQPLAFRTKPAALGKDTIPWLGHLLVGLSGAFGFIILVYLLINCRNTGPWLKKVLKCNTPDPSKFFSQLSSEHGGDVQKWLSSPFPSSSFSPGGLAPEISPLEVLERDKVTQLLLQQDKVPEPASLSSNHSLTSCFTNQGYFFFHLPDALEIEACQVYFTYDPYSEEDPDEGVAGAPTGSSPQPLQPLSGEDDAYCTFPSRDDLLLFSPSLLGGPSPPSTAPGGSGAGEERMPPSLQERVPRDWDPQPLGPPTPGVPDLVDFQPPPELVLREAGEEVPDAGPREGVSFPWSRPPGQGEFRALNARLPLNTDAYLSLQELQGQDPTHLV
T1 sequence (looked up) 2: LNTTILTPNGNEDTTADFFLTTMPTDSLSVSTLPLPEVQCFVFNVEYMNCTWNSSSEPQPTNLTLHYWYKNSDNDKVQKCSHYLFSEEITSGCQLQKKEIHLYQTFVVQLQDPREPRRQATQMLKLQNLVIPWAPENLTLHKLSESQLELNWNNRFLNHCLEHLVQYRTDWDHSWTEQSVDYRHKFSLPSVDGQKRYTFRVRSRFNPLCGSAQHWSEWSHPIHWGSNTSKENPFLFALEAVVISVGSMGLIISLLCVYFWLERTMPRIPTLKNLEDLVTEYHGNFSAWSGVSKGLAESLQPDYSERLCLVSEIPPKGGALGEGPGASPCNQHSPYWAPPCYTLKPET

T2: IL-2Rα/β/γc complex (high affinity receptor) on human activated CD8+ T cells (human, UniProt P01589 22-272; P14784 27-551; P31785 23-369)
T2 sequence (looked up) 1: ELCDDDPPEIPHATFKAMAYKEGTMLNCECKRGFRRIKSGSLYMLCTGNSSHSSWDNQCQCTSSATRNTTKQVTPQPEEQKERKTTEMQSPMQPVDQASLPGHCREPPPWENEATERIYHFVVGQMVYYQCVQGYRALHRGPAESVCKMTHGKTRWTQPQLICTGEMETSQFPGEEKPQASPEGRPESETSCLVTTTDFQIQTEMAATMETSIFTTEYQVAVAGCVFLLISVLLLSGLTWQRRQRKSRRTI
T2 sequence (looked up) 2: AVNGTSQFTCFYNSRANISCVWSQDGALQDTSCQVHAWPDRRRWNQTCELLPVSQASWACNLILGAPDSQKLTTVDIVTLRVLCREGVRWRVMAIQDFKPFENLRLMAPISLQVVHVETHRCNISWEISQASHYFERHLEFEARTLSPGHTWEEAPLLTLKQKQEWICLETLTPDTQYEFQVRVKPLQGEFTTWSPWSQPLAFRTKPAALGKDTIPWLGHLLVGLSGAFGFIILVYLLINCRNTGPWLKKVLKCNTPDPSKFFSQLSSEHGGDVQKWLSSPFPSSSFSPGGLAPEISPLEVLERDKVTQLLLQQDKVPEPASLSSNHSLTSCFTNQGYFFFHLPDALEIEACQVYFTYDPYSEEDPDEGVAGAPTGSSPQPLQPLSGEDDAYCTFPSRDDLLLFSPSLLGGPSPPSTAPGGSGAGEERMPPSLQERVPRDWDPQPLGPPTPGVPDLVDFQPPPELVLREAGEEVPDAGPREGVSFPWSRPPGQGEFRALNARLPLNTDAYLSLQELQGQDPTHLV
T2 sequence (looked up) 3: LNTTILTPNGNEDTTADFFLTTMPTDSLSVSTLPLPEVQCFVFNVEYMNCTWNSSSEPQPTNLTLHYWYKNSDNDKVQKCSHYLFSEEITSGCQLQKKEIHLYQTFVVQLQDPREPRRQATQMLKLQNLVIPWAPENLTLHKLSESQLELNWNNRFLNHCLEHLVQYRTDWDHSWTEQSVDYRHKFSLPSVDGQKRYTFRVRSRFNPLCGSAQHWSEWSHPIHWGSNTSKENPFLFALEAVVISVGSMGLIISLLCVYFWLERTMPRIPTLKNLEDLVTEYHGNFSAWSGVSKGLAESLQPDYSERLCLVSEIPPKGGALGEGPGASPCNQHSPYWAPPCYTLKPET


Columns and labels:
Experiment in all cases: cell-based or functional assay
[1] = target: T1, IL-2Rβ/γc complex (intermediate …)
[2] = target: T2, IL-2Rα/β/γc complex (high affinity …)
[3] = target: PD-1 (on CHO-PD1 engineered cell line; on activated CD8+ T cells) (UniProt Q15116 25-288, limits assumed)

Row | Potency reduction, pSTAT5, human primary CD8+ T [1] [fold] | pSTAT5 EC50, human primary CD8+ T [1] [nM] | Potency reduction, pSTAT5, human activated CD8+ T (CD25 positive and PD-1 positive) [2] [fold] | pSTAT5 EC50, human activated CD8+ T (CD25 positive and PD-1 positive) [2] [nM] | PD-1+/PD-1- ratio (pSTAT5 potency, activated versus primary CD8+ T) [3] [fold] | Binder
1 | 56.8 | 809 | 44.3 | 1.21 | 669 | W3XX115-T2U3.E44-20.uIgG4V322 (Fc fusion) APTSSSTKKTQLQLEHLLLDLQMILNGINNYKNPKLTWMLTFKFYMPKKATELKHLQCLEEELKPLEEVLNLAQSKNFHLRPRDLISNINVIVLELKGSETTFMCEYADETATIVEFLNRWITFCQSIIESKYGPPCPPCPAPEAAGGPSVFLFPPKPKDTLMISRTPEVTCVVVDVSQEDPEVQFNWYVDGVEVHNAKTKPREEQFNSTYRVVSVLTVLHQDWLNGKEYKCKVSNKGLPSSIEKTISKAKGQPREPQVYTLPPCQEEMTKNQVSLWCLVKGFYPSDIAVEWESNGQPENNYKTTPPVLDSDGSFFLYSRLTVDKSRWQEGNVFSCSVMHEALHNHYTQKSLSLSLGK heavy: QVQLVQSGAEVKKPGSSVKVSCKASGFTFTTYYISWVRQAPGQGLEYLGYINMGSGGTNYNEKFKGRVTITADKSTSTAYMELSSLRSEDTAVYYCAIIGYFDYWGQGTMVTVSSASTKGPSVFPLAPCSRSTSESTAALGCLVKDYFPEPVTVSWNSGALTSGVHTFPAVLQSSGLYSLSSVVTVPSSSLGTKTYTCNVDHKPSNTKVDKRVESKYGPPCPPCPAPEAAGGPSVFLFPPKPKDTLMISRTPEVTCVVVDVSQEDPEVQFNWYVDGVEVHNAKTKPREEQFNSTYRVVSVLTVLHQDWLNGKEYKCKVSNKGLPSSIEKTISKAKGQPREPQVCTLPPSQEEMTKNQVSLSCAVKGFYPSDIAVEWESNGQPENNYKTTPPVLDSDGSFFLVSRLTVDKSRWQEGNVFSCSVMHEALHNHYTQKSLSLSLGK light: DVVMTQSPLSLPVTLGQPASISCRSSQSLLDSDGGTYLYWFQQRPGQSPRRLIYLVSTLGSGVPDRFSGSGSGTDFTLKISRVEAEDVGVYYCMQLTHWPYTFGQGTKLEIKRTVAAPSVFIFPPSDEQLKSGTASVVCLLNNFYPREAKVQWKVDNALQSGNSQESVTEQDSKDSTYSLSSTLTLSKADYEKHKVYACEVTHQGLSSPVTKSFNRGEC
2 | 26.2 | 373 | 48.6 | 1.32 | 283 | W3XX115-T2U3.E44-33.uIgG4V322 (Fc fusion) APTSSSTKKTQLQLEHLLLDLQMILNGINNYKNPKLTWMLTFKFYMPKKATELKHLQCLEEELKPLEEVLNLAQSKNFHLRPRDLISNINVIVLELKGSETTFMCEYADETATIVEFLNRWITFCQSILESKYGPPCPPCPAPEAAGGPSVFLFPPKPKDTLMISRTPEVTCVVVDVSQEDPEVQFNWYVDGVEVHNAKTKPREEQFNSTYRVVSVLTVLHQDWLNGKEYKCKVSNKGLPSSIEKTISKAKGQPREPQVYTLPPCQEEMTKNQVSLWCLVKGFYPSDIAVEWESNGQPENNYKTTPPVLDSDGSFFLYSRLTVDKSRWQEGNVFSCSVMHEALHNHYTQKSLSLSLGK heavy: QVQLVQSGAEVKKPGSSVKVSCKASGFTFTTYYISWVRQAPGQGLEYLGYINMGSGGTNYNEKFKGRVTITADKSTSTAYMELSSLRSEDTAVYYCAIIGYFDYWGQGTMVTVSSASTKGPSVFPLAPCSRSTSESTAALGCLVKDYFPEPVTVSWNSGALTSGVHTFPAVLQSSGLYSLSSVVTVPSSSLGTKTYTCNVDHKPSNTKVDKRVESKYGPPCPPCPAPEAAGGPSVFLFPPKPKDTLMISRTPEVTCVVVDVSQEDPEVQFNWYVDGVEVHNAKTKPREEQFNSTYRVVSVLTVLHQDWLNGKEYKCKVSNKGLPSSIEKTISKAKGQPREPQVCTLPPSQEEMTKNQVSLSCAVKGFYPSDIAVEWESNGQPENNYKTTPPVLDSDGSFFLVSRLTVDKSRWQEGNVFSCSVMHEALHNHYTQKSLSLSLGK light: DVVMTQSPLSLPVTLGQPASISCRSSQSLLDSDGGTYLYWFQQRPGQSPRRLIYLVSTLGSGVPDRFSGSGSGTDFTLKISRVEAEDVGVYYCMQLTHWPYTFGQGTKLEIKRTVAAPSVFIFPPSDEQLKSGTASVVCLLNNFYPREAKVQWKVDNALQSGNSQESVTEQDSKDSTYSLSSTLTLSKADYEKHKVYACEVTHQGLSSPVTKSFNRGEC
